Article PMC4357503

Experiments:
[1] = target: T1, GST-Puf4p (UniProt P25339 1-888); assay: EMSA
T1 sequence: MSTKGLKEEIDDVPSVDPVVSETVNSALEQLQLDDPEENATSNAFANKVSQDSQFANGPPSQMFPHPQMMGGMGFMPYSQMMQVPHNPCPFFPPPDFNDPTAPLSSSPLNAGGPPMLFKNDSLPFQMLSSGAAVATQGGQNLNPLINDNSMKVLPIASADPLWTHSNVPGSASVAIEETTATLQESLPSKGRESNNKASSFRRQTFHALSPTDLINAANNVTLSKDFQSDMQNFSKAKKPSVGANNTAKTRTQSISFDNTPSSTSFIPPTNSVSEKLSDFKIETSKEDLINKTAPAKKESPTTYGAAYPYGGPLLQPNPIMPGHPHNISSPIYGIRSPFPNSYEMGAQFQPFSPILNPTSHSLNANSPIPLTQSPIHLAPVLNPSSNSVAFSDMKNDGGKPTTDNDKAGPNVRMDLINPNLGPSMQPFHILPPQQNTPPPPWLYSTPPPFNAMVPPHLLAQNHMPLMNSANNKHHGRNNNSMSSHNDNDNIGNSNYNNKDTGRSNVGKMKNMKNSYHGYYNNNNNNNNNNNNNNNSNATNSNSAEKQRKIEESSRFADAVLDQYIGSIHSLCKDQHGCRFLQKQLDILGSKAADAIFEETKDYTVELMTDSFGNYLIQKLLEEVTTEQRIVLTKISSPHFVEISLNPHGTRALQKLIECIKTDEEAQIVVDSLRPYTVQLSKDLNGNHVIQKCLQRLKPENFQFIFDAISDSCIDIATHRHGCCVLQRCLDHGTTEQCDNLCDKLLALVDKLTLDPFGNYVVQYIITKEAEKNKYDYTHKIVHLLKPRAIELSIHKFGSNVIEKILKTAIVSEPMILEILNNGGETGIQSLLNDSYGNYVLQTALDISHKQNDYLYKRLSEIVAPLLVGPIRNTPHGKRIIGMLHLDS

[2] = target: T2, GST-Puf1p (UniProt P47135 1-1091); assay: EMSA
T2 sequence: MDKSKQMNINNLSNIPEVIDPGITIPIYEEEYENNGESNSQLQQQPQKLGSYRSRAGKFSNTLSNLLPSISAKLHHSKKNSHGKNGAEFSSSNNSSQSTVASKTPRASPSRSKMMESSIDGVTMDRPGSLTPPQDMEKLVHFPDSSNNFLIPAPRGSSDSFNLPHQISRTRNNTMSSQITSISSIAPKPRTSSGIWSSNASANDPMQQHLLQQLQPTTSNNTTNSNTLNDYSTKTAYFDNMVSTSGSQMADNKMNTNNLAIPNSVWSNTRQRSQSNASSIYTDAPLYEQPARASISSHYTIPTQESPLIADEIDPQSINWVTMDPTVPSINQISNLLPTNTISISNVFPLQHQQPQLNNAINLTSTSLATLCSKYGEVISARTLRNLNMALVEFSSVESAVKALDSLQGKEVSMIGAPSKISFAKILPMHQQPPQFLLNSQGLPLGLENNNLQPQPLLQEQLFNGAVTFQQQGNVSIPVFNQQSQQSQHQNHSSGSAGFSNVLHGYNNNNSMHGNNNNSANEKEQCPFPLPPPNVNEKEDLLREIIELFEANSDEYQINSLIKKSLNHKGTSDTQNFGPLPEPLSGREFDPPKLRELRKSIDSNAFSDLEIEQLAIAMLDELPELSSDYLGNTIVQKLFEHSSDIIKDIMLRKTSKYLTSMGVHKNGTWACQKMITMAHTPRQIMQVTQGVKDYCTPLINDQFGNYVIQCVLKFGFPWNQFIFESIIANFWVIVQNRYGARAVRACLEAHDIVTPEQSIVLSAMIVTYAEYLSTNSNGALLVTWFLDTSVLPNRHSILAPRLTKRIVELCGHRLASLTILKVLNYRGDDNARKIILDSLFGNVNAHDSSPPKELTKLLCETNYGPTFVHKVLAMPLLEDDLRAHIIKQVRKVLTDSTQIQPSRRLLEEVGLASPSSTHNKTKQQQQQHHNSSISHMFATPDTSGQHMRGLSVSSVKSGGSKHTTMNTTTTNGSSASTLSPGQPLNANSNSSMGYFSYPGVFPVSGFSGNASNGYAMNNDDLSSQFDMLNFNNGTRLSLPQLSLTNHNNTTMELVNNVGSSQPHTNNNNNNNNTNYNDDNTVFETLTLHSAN

## GUAAAGAUUGUGUAUGUAUUUAUAAGAUGAAUA (ssRNA) [YHB1 WT PRE (oWO898)]
[1]
  binding result: binds
[2]
  binding result: binds
